From paper PMC7956749, “Establishment of Novel Protein Interaction Assays between Sin3 and REST Using Surface Plasmon Resonance and Time-Resolved Fluorescence Energy Transfer” (International Journal of Molecular Sciences, 2021)
Entries after “also recorded” stand apart in the source; their conditions may differ. Where no end group is shown, it is not given here.

Experiments:
[1] = molecular target: T1, PAH1-FLAG (paired amphipathic helix 1 domain of Sin3B with a FLAG tag) (UniProt Q62141 31-107); assay: SPR; brand-new sensor chip
T1 chain: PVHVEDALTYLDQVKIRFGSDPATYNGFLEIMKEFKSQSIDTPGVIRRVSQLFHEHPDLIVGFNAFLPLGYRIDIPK

[2] = molecular target: T2, GST-tagged PAH1 (paired amphipathic helix 1 domain of Sin3B) (UniProt Q62141 31-107); assay: SPR
T2 chain: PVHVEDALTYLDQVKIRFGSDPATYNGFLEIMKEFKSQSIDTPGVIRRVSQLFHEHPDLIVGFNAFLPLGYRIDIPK

[3] = molecular target: T1, PAH1-FLAG (paired amphipathic helix 1 …); assay: SPR; well-used sensor chip (about 100 regenerations)
[4] = test system: biotinylated REST; assay: SPR kinetics of PAH1 peptides on captured biotinylated REST (Biacore T200, SA chip); type: binding; conditions: for Ka (association rate) / Kd (dissociation rate): mean ± SEM, n = 3; for binding to biotinylated REST: SPR sensorgram, SA chip, 0.625 to 10 µM analyte
Source text: In order to validate a binding surface between Sin3B and REST, we utilized the structural information of PDB (2CZY) and designed longer peptides of binding surfaces with a tag and a protease recognition site as shown in Figure 1a. We asked the RIKEN Systems and Structural Biology Center (Yokohama, Japan) to generate recombinant peptides using E. coli. Finally, we obtained biotinylated REST, GST-PAH1 and PAH1-FLAG. In order to validate whether biotinylated REST binds two PAH1 peptides, we designed an SPR assay using a streptavidin (SA) sensor chip as shown in Figure 1b. Biotinylated REST should be bound as a ligand followed by the injection of PAH1 peptides as an analyte.
We chose the amino acid sequences of PAH1 and REST from information based on the crystal structure of a PAH1/REST complex (PDB: 2CZY). We then asked the scientists with the RIKEN institute to produce recombinant PAH1 and REST peptides. They generated recombinant peptides such as GST-PAH1, PAH1-FLAG and biotinylated REST using E. coli. We used these peptides in this study.
Values are expressed as the mean ± standard error of the mean (SEM) from indicated replicate samples in each experimental group and the experiments were replicated to ensure consistency. The statistical significance was determined using the Student’s t-test. Values marked as “*” were considered to be statistically significant if their p values were <0.00005. Signal-to-background ratio (S/B), signal-to-noise ratio (S/N) and Z’-factor were calculated by the formula described in our previous report. Additionally, the general criterion sufficient to perform HTS was validated in our previous report. In the SPR experiments, a statistical trend was considered to be statistically significant if its p-value was 1 > p > 0.05.

[5] = test system: biotinylated REST; assay: TR-FRET PAH1-REST interaction (anti-GST/anti-FLAG-Eu3+ cryptate donor, SA-XL665 acceptor); type: binding; conditions: for TR-FRET signal: 665 nm normalized to 620 nm, PAH1 peptide and biotinylated REST 1 to 10,000 nM, n = 4; for dynamic range: TR-FRET 665/620 nm, 384-well, 20 µL, 50 mM Tris-HCl pH 7.6, with biotinylated REST; for S/B / S/N: n=4
Source text: Finally, in order to establish a high-throughput and high-dynamic-range assay mimicking the binding surface between PAH1 and REST, we tried to apply the TR-FRET method for monitoring the interaction as shown in Figure 3a. We chose Europium cryptate (Eu^3+)-conjugated antibodies against GST or FLAG as a donor and SA-conjugated XL665 (a phycobiliprotein pigment derived from red algae) as an acceptor, for TR-FRET. If GST-PAH1 or PAH1-FLAG binds biotinylated REST and then transfers Eu^3+’s energy to XL665, it results in a change of the wavelength from 620 nm (a […] fluorescence derived from Eu^3+ alone) to 665 nm (a long-lived fluorescence converted by FRET) (Figure 3a). […] We prepared a serial dilution of GST-PAH1 or PAH1-FLAG and biotinylated REST ranging from 1 to 10,000 nM (Figure 3b) and then determined the 665 nm fluorescence normalized to 620 nm. […] We also checked whether GST-PAH1-anti-GST-Eu^3+ or FLAG-PAH1-anti-FLAG-Eu^3+ complexes caused any FRET with XL665 (Supplementary Figure S1e), and could not observe any change in wells with these alone. We assigned thresholds for high-throughput and high-standard assay as signal-to-background ratio (S/B) and Z’ factors of more than 5 and 0.8, respectively. We narrowed down optimal conditions to GST-PAH1 at 10, 100, 1000 or 10,000 nM in the presence of biotinylated REST at 1000 or 10,000 nM and that PAH1-FLAG and biotinylated REST at 10,000 nM. The S/B, signal-to-noise ratio (S/N), Z’ factor and coefficient of variation (CV) are shown in the Supplementary Table S1. We also assigned stringent statistical significance and then identified similar results by the S/B and Z’ factor (Figure 3b). To exclude the possibility that Eu^3+ antibodies directly bound XL665 causing FRET, we also determined the fluorescence level in wells including anti-GST-Eu^3+ or anti-FLAG-Eu^3+ and XL665. […] The results were 772 ± 9.1 and 436 ± 9.1 665/620 nm, respectively (n = 6). Although we observed very good dynamic range data at 1 h after preparing reaction mixtures, we obtained similar high-dynamic range data even at 18 h after that (data not shown). From 10 to 1000 nM in the concentration of biotinylated REST, 1000 or 10,000 nM GST-PAH1 induced maximal signals (Figure 3b, left, light blue and orange). The dynamic range of the assay was 31-fold, whereas only 10,000 nM PAH1-FLAG was required for the same amount of biotinylated REST to provide a maximal response and the dynamic range was 7-fold (Figure 3b, right, orange). We ultimately succeeded in establishing a high-standard assay, especially using GST-PAH1 and biotinylated REST.
TR-FRET reagents were prepared by diluting the anti-GST Eu3+ cryptate or anti-FLAG Eu3+ cryptate and SA-XL665 in 50 mM Tris-HCl (pH 7.6) buffer containing 15 mM NaCl, 140 mM KCl, 0.5 mM MgCl2, 0.1% BSA and 0.8 M KF with and without biotinylated REST and each PAH1 peptide. The reaction mix was 20 µL in 384-well format according to the manufacturer’s instructions. The fluoride ion avoids interference with fluorescence properties by protecting free coordination sites between conjugate “cage” and europium ions. One hour or more after preparation, we measured the intensities at 665 and 620 nm wavelength using PHERAstar FS (BMG biotech, Offenburg, Germany).
Values are expressed as the mean ± standard error of the mean (SEM) from indicated replicate samples in each experimental group and the experiments were replicated to ensure consistency. The statistical significance was determined using the Student’s t-test. Values marked as “*” were considered to be statistically significant if their p values were <0.00005. Signal-to-background ratio (S/B), signal-to-noise ratio (S/N) and Z’-factor were calculated by the formula described in our previous report. Additionally, the general criterion sufficient to perform HTS was validated in our previous report. […]

[6] = test system: biotinylated REST; assay: SPR competitive binding, GST-PAH1 plus PAH1-FLAG on captured biotinylated REST
Protocol: In order to determine whether another PAH1 peptide, PAH1-FLAG, competitively binds biotinylated REST in the presence of GST-PAH1, we injected 10 µM GST-PAH1, 10 µM PAH1-FLAG or 5 µM GST-PAH1 and 5 µM PAH1-FLAG into the flow cell capturing biotinylated REST, all of which could change the sensorgram, even though their rates of association/dissociation were different (Figure 2c). […] As a result, the equal molarity of both PAH1 peptides changed the sensorgram-like intermediate form (Figure 2c). The association rate was faster than GST-PAH1, while the dissociation rate was slower than PAH1-FLAG.

[7] = SPR Biacore T200, SA chip with biotinylated REST, brand-new sensor chip, analyte 0.625 to 10 µM, 30 µL/min, association 60 s, dissociation 2 min
[8] = TR-FRET, PAH1 10 nM, REST 1000 nM
[9] = TR-FRET, PAH1 10 nM, REST 10,000 nM
[10] = TR-FRET, PAH1 100 nM, REST 1000 nM
[11] = TR-FRET, PAH1 100 nM, REST 10,000 nM
[12] = TR-FRET, PAH1 1000 nM, REST 1000 nM
[13] = TR-FRET, PAH1 1000 nM, REST 10,000 nM
[14] = TR-FRET, PAH1 10,000 nM, REST 1000 nM
[15] = TR-FRET, PAH1 10,000 nM, REST 10,000 nM
[16] = SPR, well-used sensor chip (after around 100 regenerations) with biotinylated REST

B1: biotinylated REST peptide (RE-1 silencing transcription factor, binding surface for Sin3B PAH1) (peptide)
chain: APQLIMLANVALTGE
modifications: also: biotin, site not given here
Work on B1 yielded a Kd [1] of 2.03 µM, a Kd [2] of 0.000468 µM and a Kd [3] of 1.69 µM.

B2: GST-PAH1: recombinant glutathione S-transferase (GST)-tagged PAH1 peptide of Sin3B, produced in E. coli (protein)
chain: PVHVEDALTYLDQVKIRFGSDPATYNGFLEIMKEFKSQSIDTPGVIRRVSQLFHEHPDLIVGFNAFLPLGYRIDIPK
modifications: left off: GST, end not stated, kept | histidine-tag-like sequence, end not stated, state not stated
notes: recombinant glutathione S-transferase (GST)-tagged PAH1 peptide of Sin3B, produced in E. coli
In the case of B2, the Ka (association rate) [4, 7] is reported as 2.38e+06 ± 6.7e+11 M⁻¹ s⁻¹, the “Kd (dissociation rate)” value [4, 7] is reported as 1.35 ± 0.82 × 10^−3 1/s and the “association and dissociation with biotinylated REST” value ([4]; SPR sensorgram after ligand capturing, GST-PAH1 10 µM) is reported as “robust association and subsequent dissociation”. For the same molecule, the “binding to biotinylated REST” value [4] was “bound biotinylated REST in a concentration-dependent manner”, the “affinity/association compared with PAH1-FLAG” value ([4]; SPR, statistical comparison GST-PAH1 vs PAH1-FLAG, Student's t-test) was “not significant but had a slower trend than PAH1-FLAG, resulting in a significantly increased affinity to REST; also recorded: significantly greater than that of PAH1-FLAG” and the “TR-FRET signal” value [5] was “substantial signals; also recorded: remarkably higher dynamic range and accuracy”. The dynamic range [5] was 31 fold, the S/B [5, 8] was 26.6 and the S/N [5, 8] was 469.9. The S/B [5, 9] was 24.2, the S/N [5, 9] was 1,114.3 and the S/B [5, 10] was 27.0. It also gave a S/N [5, 10] of 478.7, a S/B [5, 11] of 26.7 and a S/N [5, 11] of 1230.7. It also gave a S/B [5, 12] of 29.2, a S/N [5, 12] of 517.8 and a S/B [5, 13] of 31.1. It also gave a S/N [5, 13] of 1441.0, a S/B [5, 14] of 7.7 and a S/N [5, 14] of 123.9. The S/B [5, 15] was 11.7 and the S/N [5, 15] was 515.1.

B3: PAH1-FLAG: recombinant FLAG-tagged PAH1 peptide of Sin3B, produced in E. coli (protein)
chain: PVHVEDALTYLDQVKIRFGSDPATYNGFLEIMKEFKSQSIDTPGVIRRVSQLFHEHPDLIVGFNAFLPLGYRIDIPK
modifications: left off: FLAG, end not stated, kept | histidine-tag-like sequence, end not stated, state not stated
notes: recombinant FLAG-tagged PAH1 peptide of Sin3B, produced in E. coli
For B3, the “Ka (association rate)” value [4, 7] was 1.93 ± 0.17 × 10^3 Ms, the “Kd (dissociation rate)” value [4, 7] was 3.83 ± 0.39 × 10^−3 1/s and the “binding to biotinylated REST” value [4] was “bound biotinylated REST in a concentration-dependent manner”. For the same molecule, the “Ka (association rate)” value [4, 16] was 2.31 ± 0.78 × 10^3 Ms, the “Kd (dissociation rate)” value [4, 16] was 3.59 ± 0.13 × 10^−3 1/s and the “affinity on well-used vs brand new chip” value ([4]; SPR, PAH1-FLAG, well-used vs brand-new chip with REST) was “not significantly different, but had a trend of lower affinity when compared to the brand new one”. For the same molecule, the “TR-FRET signal” value [5] was “fewer signals only at high reagent concentrations”, the dynamic range [5] was 7 fold and the S/N [5, 15] was 165.3. For the same molecule, the “concentration inducing maximal signal” value ([5]; TR-FRET, biotinylated REST 10 to 1000 nM) was 10,000 nM, the “competitive binding to biotinylated REST” value ([6]; 10 µM GST-PAH1, 10 µM PAH1-FLAG or 5 µM of each) was “shares the same binding surface as GST-PAH1” and the “rates of association and dissociation vs GST-PAH1” value ([6]; 10 µM each) was “far more quickly than in GST-PAH1”.
